According to PMC2577774 (Journal of molecular biology, 2008):

Molecular target: the molecule itself
Assay: native MS

B1: gp3(Δ1–152), C-terminal truncate of P22 terminase small subunit gp3 lacking ten amino acids (domain or fragment, bacteriophage P22, UniProt P04893 1-152, looked up)
chain: MAAPKGNRFWEARSSHGRNPKFESPEALWAACCEYFEWVEANPLWEMKAFSYQGEVIQEPIAKMRAMTITGLTLFIDVTLETWRTYRLREDLSEVVTRAEQVIYDQKFSGAAADLLNANIIARDLGLKEQSQVEDVTPDKGDRDKRRSRIKE
- stoichiometry N: 9
